Assay results published in patent US20260049140A1 (JANUX THERAPEUTICS, published 2026).
Ends that are not written are not given here.

Assays:
Assay in all cases: competition ELISA, peptide titrated vs TCE binding to captured CD3
TCE-30 = biological target: T1, TCE-30
T1 construct: anti-CD3 scFv H101A; anti-TROP2 Fab F108A

TCE-33 = biological target: T2, TCE-33
T2 construct: anti-CD3 scFv with P41S; E227D set of mutations; anti-TROP2 Fab F108A

TCE-32 = biological target: T3, TCE-32
T3 construct: anti-CD3 scFv F240A; anti-TROP2 Fab F108A

TCE-29 = biological target: T4, TCE-29
T4 construct: anti-CD3 scFv wt; anti-TROP2 Fab F108A

TCE-15 = biological target: T5, TCE-15
T5 construct: anti-CD3 scFv W112A; anti-TROP2 Fab wt; also called 3087

TCE-19 = biological target: T6, TCE-19
T6 construct: anti-CD3 scFv W233A; anti-TROP2 Fab wt; also called 3091

TCE-24 = biological target: T7, TCE-24
T7 construct: anti-CD3 scFv W238A; anti-TROP2 Fab wt; also called 3096

| IC50 (TCE-30) [µM] | IC50 (TCE-33) [µM] | IC50 (TCE-32) [µM] | IC50 (TCE-29) [µM] | IC50 (TCE-15) [µM] | IC50 (TCE-19) [µM] | IC50 (TCE-24) [µM] | Binder |
| --- | --- | --- | --- | --- | --- | --- | --- |
| > 100 | > 100 | > 100 | > 100 | – | – | – | YLCGPDTDETLACY (cysteine pairing not given here; also: biotinylated, site not given here) [Peptide-13] |
| – | – | – | – | > 100 | > 100 | > 100 | GSACLGPEWEVCPY (cysteine pairing not given here; also: biotinylated when captured in ELISA, also called 1596) [Peptide-11] |
